Experimental data published in patent publication US5976792.

Each substance was assayed against 125I-labeled fibronectin (assay: binding of 125I-labeled fibronectin to whole bacterial cells).

Going from “whole cells of S. aureus ALC561 (ALC136 with pALC561, sar fragment nt 1-1349) (cells without a defined receptor)” to “whole cells of S. aureus sar mutant ALC136 (isogenic mutant of RN6390 carrying a sar::Tn917LTV1 mutation) (cells without a defined receptor)”, the cpm of 125I fibronectin bound to 10^9 CFU falls from 19300 cpm to 2390 cpm.

For “whole cells of S. aureus strain RN6390 (parental strain) (cells without a defined receptor)”, the cpm of 125I fibronectin bound to 10^9 CFU was 3320 cpm.
